Measurements from publication PMC4477859.

Biological target: wild-type CENP-A nucleosome arrays with Myc-H4 (UniProt P49450)
Assay: pull-down

Sequence of UniProt P49450 (P49450 whole entry, looked up): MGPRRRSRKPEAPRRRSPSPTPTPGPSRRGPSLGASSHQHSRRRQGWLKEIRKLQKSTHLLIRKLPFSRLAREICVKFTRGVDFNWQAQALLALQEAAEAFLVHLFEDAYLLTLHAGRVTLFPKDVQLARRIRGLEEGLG

## CENP-C (natural protein)
  CENP-C to CENP-A nucleosome ratio, low against high saturation arrays: 2 fold
